Results from the supplement of paper PMC10126150.
± gives the standard deviation of the averaged measurements.

test system: ATP; assay: switch fluorescence ratio, 500 uM ATP over buffer (Cy3 cluster intensity, sum of 5 cycles each) (fold (ratio)); higher = stronger signal-on switching upon ATP binding; sequences stand for … in TCGTCGGCAGCGTCAGATGTGTATAAGAGACAGTTTTTTTTTTTTTTTTTTTTTTTTT…TC; details: aptamer strand: ATP DNA aptamer (quencher-CACCTGGGGGAGTATTGCGGAGGAAGG + anchor), 100 nM annealed; ATP concentration: 500 uM
How it was run: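 Between each of five buffer/ATP cycles, the flow-cell was stripped with NaOH and re-annealed. Each cycle imaged Cy3-labelled switching-strand clusters, annealed to 100 nM quencher-labelled ATP aptamer on a modified Illumina MiSeq flow-cell, first in selection buffer and then after 15 min with 500 uM ATP at 22 °C. The fluorescence ratio is summed target-cycle over summed buffer-cycle Cy3 intensity per cluster, averaged per switch-domain sequence, with clusters outside 100-1000 RFU excluded.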
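Also: ATP exposure 15 min at 22 °C before imaging.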

Row | Sequence | switch fluorescence ratio
1 | TCAATCAGGT | 1.032 ± 0.0019
2 | TCAATCGACA | 1 ± 0.041
3 | TCAATCGTTG | 1.05 ± 0.016
4 | TCAATCTAAC | 1.35 ± 0.55
5 | TCAATGGGGC | 0.979 ± 0.044
6 | TCAATGGGTA | 0.991 ± 0.021
7 | TCAATGGTAA | 0.97 ± 0.096
8 | TCAATGGTTA | 0.978 ± 0.014
9 | TCAATGTGCG | 1.013 ± 0.01
10 | TCAATTCTGA | 1.002 ± 0.0075
11 | TCACAAATAA | 0.993 ± 0.043
12 | TCACAAATGA | 1.013 ± 0.0077
13 | TCACAAGTTG | 1.01 ± 0.019
14 | TCACAGTTTT | 0.983 ± 0.02
15 | TCACATGTGG | 1.03 ± 0.044
16 | TCACATTAAG | 1.01 ± 0.037
17 | TCACATTTGG | 1.03 ± 0.045
18 | TCACATTTTA | 0.995 ± 0.04
19 | TCACGCCTTT | 1.05 ± 0.033
20 | TCACGGGCAG | 0.978 ± 0.012
21 | TCACGGGGTT | 1.01 ± 0.039
22 | TCACGGTGTC | 1.11 ± 0.026
23 | TCACGTGTCA | 0.9999 ± 0.0089
24 | TCACGTTAAT | 1.2 ± 0.058
25 | TCACGTTGGG | 0.9989 ± 0.0094

Row | Sequence | switch fluorescence ratio
26 | TCACTCATTG | 0.9975 ± 0.0014
27 | TCACTGAGCT | 1.05 ± 0.034
28 | TCACTGGGGA | 0.995 ± 0.03
29 | TCACTTAATA | 0.994 ± 0.014
30 | TCAGAATGGG | 0.9833 ± 0.0047
31 | TCAGACAGTT | 0.987 ± 0.0042
32 | TCAGACTTGC | 1 ± 0.035
33 | TCAGAGACCC | 1.006 ± 0.009
34 | TCAGATATTG | 0.992 ± 0.04
35 | TCAGATTGGC | 1.04 ± 0.12
36 | TCAGCCTAGG | 1.02 ± 0.023
37 | TCAGCGTGGG | 1.04 ± 0.054
38 | TCAGCTGCAA | 4.21 ± 0.32
39 | TCAGGAGGGC | 0.999 ± 0.016
40 | TCAGGAGTTT | 1.04 ± 0.011
41 | TCAGGATGTT | 0.987 ± 0.026
42 | TCAGGATTAG | 1.02 ± 0.02
43 | TCAGGATTGT | 0.967 ± 0.031
44 | TCAGGGACCG | 1.03 ± 0.026
45 | TCAGGGAGTT | 0.969 ± 0.015
46 | TCAGGGATT | 1.01 ± 0.057
47 | TCAGGGCATG | 1.04 ± 0.043
48 | TCAGGGCTGT | 0.994 ± 0.029
49 | TCAGGGGAAC | 1.06 ± 0.07
50 | TCAGGGGCCC | 1.07 ± 0.084

Row | Sequence | switch fluorescence ratio
51 | TCAGGGGGAT | 1.02 ± 0.028
52 | TCAGGGGGGA | 1 ± 0.04
53 | TCAGGGGTTT | 1.3 ± 0.53
54 | TCAGGGTAGG | 1.04 ± 0.033
55 | TCAGGGTCAG | 1.007 ± 0.0063
56 | TCAGGGTGC | 1.204 ± 0.0036
57 | TCAGGGTGTC | 1.33 ± 0.17
58 | TCAGGGTGTG | 1.019 ± 0.0067
59 | TCAGGTGGAG | 1.03 ± 0.041
60 | TCAGGTGTGA | 1.27 ± 0.025
61 | TCAGGTGTGT | 1.36 ± 0.11
62 | TCAGGTTTTG | 0.98 ± 0.013
63 | TCAGTAACGT | 1.02 ± 0.013
64 | TCAGTAAGTT | 0.995 ± 0.021
65 | TCAGTACGAC | 1.2 ± 0.021
66 | TCAGTAGTGA | 1.06 ± 0.051
67 | TCAGTATAGG | 1.01 ± 0.021
68 | TCAGTATTTT | 1.018 ± 0.0047
69 | TCAGTCAAGG | 0.9745 ± 0.0044
70 | TCAGTCATCT | 1 ± 0.013
71 | TCAGTGAAAC | 0.988 ± 0.021
72 | TCAGTGTTTT | 1 ± 0.04
73 | TCAGTTTTTC | 1.013 ± 0.0022
74 | TCATAAAACC | 1.09 ± 0.11
75 | TCATAAGGGC | 1.01 ± 0.12

Row | Sequence | switch fluorescence ratio
76 | TCATACGTCG | 1.03 ± 0.036
77 | TCATAGGGTG | 1.03 ± 0.1
78 | TCATATTCTA | 0.9849 ± 0.0019
79 | TCATATTGAT | 0.984 ± 0.051
80 | TCATATTGCG | 0.983 ± 0.019
81 | TCATCAGTCT | 0.995 ± 0.039
82 | TCATCCTAGC | 1.19 ± 0.062
83 | TCATCGGGGT | 0.994 ± 0.023
84 | TCATCTACAG | 1.02 ± 0.013
85 | TCATCTCTGG | 0.992 ± 0.024
86 | TCATCTTGTC | 1.01 ± 0.04
87 | TCATGAAAAG | 0.997 ± 0.013
88 | TCATGAACAT | 1.001 ± 0.0082
89 | TCATGAAGGA | 0.964 ± 0.018
90 | TCATGACCCA | 1.03 ± 0.018
91 | TCATGATGTA | 0.9848 ± 0.0061
92 | TCATGGAGGT | 0.96 ± 0.03
93 | TCATGGGAGA | 0.984 ± 0.04
94 | TCATGGGCCG | 1.33 ± 0.43
95 | TCATGGTACG | 1.06 ± 0.022
96 | TCATGGTCCC | 1.02 ± 0.018
97 | TCATGGTTG | 1.01 ± 0.01
98 | TCATGTACCG | 1.05 ± 0.044
99 | TCATGTGCGG | 0.9639 ± 0.0022
100 | TCATTAAGGT | 0.995 ± 0.03
